From patent US20120058906A1 (published 2012) come the findings set out here.

Assay [1] concerns the target T1, rHuman CD44/Fc Chimera, CF (R&D Systems Cat#3660-CD) (human, UniProt P16070 21-220).
T1 construct: Bought Fc chimera; not shown: Fc of the bought chimera
Description: ECL (MSD multi-spot), antigen on plate, Fab 2 nM.

Assay [2] deals with T2, rHuman EGF R/Fc Chimera, CF (R&D Systems Cat#344-ER) (human, UniProt P00533 25-645).
T2 construct: Bought Fc chimera; also called ErbB-1; not shown: Fc of the bought chimera
Description: ECL (MSD multi-spot), antigen on plate, Fab 2 nM.

The target of assay [3] is T3, rHuman CD44/Fc Chimera, CF (R&D Systems Cat#3660-CD) (human, UniProt P16070 21-220).
T3 construct: Fc part of the bought chimera not given
Description: MSD ECL multi-spot plate; Fab 2.0 nM; blank spot 316.

The target in assay [4] is T4, rHuman ErbB2/Fc Chimera, CF (R&D Systems Cat#1129-ER) (human, UniProt P04626 23-652).
T4 construct: also called HER2/neu; human epidermal growth factor 2 receptor; Fc part of the bought chimera not given
Described as above.

The target in assay [5] is T5, rHuman Erythropoietin R/Fc Chimera, CF (R&D Systems Cat#963-ER) (human, UniProt P19235 25-250).
T5 construct: also called EPO R/Fc; Epo R; Fc part of the bought chimera not given
T5 sequence: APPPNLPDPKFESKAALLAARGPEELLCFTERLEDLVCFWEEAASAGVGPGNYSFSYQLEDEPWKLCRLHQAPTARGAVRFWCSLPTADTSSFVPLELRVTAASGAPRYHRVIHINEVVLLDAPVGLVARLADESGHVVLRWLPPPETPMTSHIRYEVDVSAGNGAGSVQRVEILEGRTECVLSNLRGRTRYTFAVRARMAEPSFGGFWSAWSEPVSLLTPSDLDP
The assay is described as above.

The target of assay [6] is T6, rHuman HGF R/c-MET/Fc Chimera, CF (R&D Systems Cat#358-MT/CF) (human, UniProt P08581 25-932).
T6 construct: also called HGF R/Fc; hepatocyte growth factor receptor; Fc part of the bought chimera not given
The description is as above.

In assay [7] the target is T7, rHuman IGF-1 sR, (IGF-1 sR), CF (R&D Systems Cat#391-GR) (human, UniProt P08069 31-932).
T7 construct: also called insulin-like growth factor-1 soluble receptor; IGF-R1
Described as above.

Assay [8] deals with T8, rHuman EGF R/Fc Chimera, CF (R&D Systems Cat#344-ER) (human, UniProt P00533 25-645).
T8 construct: also called epidermal growth factor receptor; Fc part of the bought chimera not given
Described as above.

For assay [9], the target named is T9, Recombinant Human DLL4 (R&D Systems Cat#1506-D4/CF) (human, UniProt Q9NR61 27-524).
T9 construct: also called delta-like protein 4
The assay is described as above.

Assay [10] has as its target T10, rHuman Notch-1/Fc Chimera, CF (R&D Systems Cat#3647-TK) (human, UniProt P46531 19-526).
T10 construct: Fc part of the bought chimera not given
The description is as above.

For assay [11], the target named is T11, rHuman P-Cadherin/Fc Chimera, CF (R&D Systems Cat#861-PC) (human, UniProt P22223 108-654).
T11 construct: Purchased Fc chimera; not shown: Fc portion of the purchased chimera
Description: MSD ECL multi-spot plate, antigen immobilized; Fab 8 nM; blank spot 489.

For assay [12], the target named is T12, rHuman Notch-1/Fc Chimera, CF (R&D Systems Cat#3647-TK) (human, UniProt P46531 19-526).
T12 construct: Purchased Fc chimera; not shown: Fc portion of the purchased chimera
The description is as above.

Assay [13] has as its target T13, rHuman EGF R/Fc Chimera, CF (R&D Systems Cat#344-ER) (human, UniProt P00533 25-645).
T13 construct: Purchased Fc chimera; not shown: Fc portion of the purchased chimera
The description is as above.

Assay [14] concerns the target T14, rHuman IGF-1 sR (IGF-1 sR), CF (R&D Systems Cat#391-GR) (human, UniProt P08069 31-932).
T14 construct: Purchased soluble receptor; also called insulin-like growth factor-1 soluble receptor; IGF-R1
The description is as above.

Assay [15] concerns the target T15, rHuman CD44/Fc Chimera, CF (R&D Systems Cat#3660-CD) (human, UniProt P16070 21-220).
T15 construct: Purchased Fc chimera; not shown: Fc portion of the purchased chimera
Described as above.

Assay [16] deals with T16, rHuman HGF R/c-MET/Fc Chimera, CF (R&D Systems Cat#358-MT/CF) (human, UniProt P08581 25-932).
T16 construct: Purchased Fc chimera; also called HGF R/Fc; not shown: Fc portion of the purchased chimera
The description is as above.

Assay [17] deals with T17, rHuman Erythropoietin R/Fc Chimera, CF (R&D Systems Cat#963-ER) (human, UniProt P19235 25-250).
T17 construct: Purchased Fc chimera; also called EPO R/Fc; Epo R; not shown: Fc portion of the purchased chimera
T17 sequence: T5 sequence
Described as above.

Assay [18] addresses T18, Recombinant Human DLL4 (R&D Systems Cat#1506-D4/CF) (human, UniProt Q9NR61 27-524).
T18 construct: Purchased recombinant protein; also called delta-like protein 4
The assay is described as above.

Assay [19] deals with T19, rHuman ErbB2/Fc Chimera, CF (R&D Systems Cat#1129-ER) (human, UniProt P04626 23-652).
T19 construct: Purchased Fc chimera; also called HER2/neu; not shown: Fc portion of the purchased chimera
The assay is described as above.
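Note: blank spot per well as comparator with Hit at signal to blank ratio of 4 or more.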

B1: Fab VH1-46_IGHD6-6*01_IGHJ1*01_S102A_S103P_S104F & L6_IGKJ1*01_S30N (Fab, V domains shown)
VH: QVQLVQSGAEVKKPGASVKVSCKASGYTFTSYYMHWVRQAPGQGLEWMGIINPSGGSTSYAQKFQGRVTMTRDTSTSTVYMELSSLRSEDTAVYYCAREEYAPFSAEYFQHWGQGTLVTVSS
VL: EIVLTQSPATLSLSPGERATLSCRASQSVNSYLAWYQQKPGQAPRLLIYDASNRATGIPARFSGSGSGTDFTLTISSLEPEDFAVYYCQQRSNWPPWTFGQGTKVEIKR
notes: Fab
With B1, the ECL signal is 209 ECL signal in [1] and 171 ECL signal in assay [2].

B2: Fab VH1-8_IGHD2-2*01_IGHJ6*01 & L12_IGKJ1*01 (Fab, V domains shown)
VH: QVQLVQSGAEVKKPGASVKVSCKASGYTFTSYDINWVRQATGQGLEWMGWMNPNSGNTGYAQKFQGRVTMTRNTSISTAYMELSSLRSEDTAVYYCARGGYCSSTSCYADYYYYYGMDVWGQGTTVTVSS
VL: not shown
Consider B2, for which the ECL signal came out at 447 ECL signal in assay [3]; 382 ECL signal in assay [4]; 433 ECL signal in assay [5]; 356 ECL signal in [6]; 367 ECL signal in [7]; 424 ECL signal in assay [8]. In addition, the figures for the ECL signal in assay [9] and in assay [10] were 605 ECL signal and 539 ECL signal, respectively.

B3: Fab VH5-51_IGHD5-18*01>3_IGHJ4*01_G100K & V3-4_IGLJ1*01 (Fab, V domains shown)
VH: EVQLVQSGAEVKKPGESLKISCKGSGYSFTSYWIGWVRQMPGKGLEWMGIIYPGDSDTRYSPSFQGQVTISADKSISTAYLQWSSLKASDTAMYYCARRKYSYGYDYFDYWGQGTLVTVSS
VL: QTVVTQEPSFSVSPGGTVTLTCGLSSGSVSTSYYPSWYQQTPGQAPRTLIYSTNTRSSGVPDRFSGSILGNKAALTITGAQADDESDYYCVLYMGSGISYVFGTGTKVTVL
notes: It was expressed as a Fab: CH1 with tags from Plasmid A and lambda CL from Plasmid E; also called Fab No. 22
For B3, the ECL signal is 788 ECL signal in [11]; 831 ECL signal in assay [12]; 1030 ECL signal in assay [13]; 1200 ECL signal in assay [14]; 853 ECL signal in [15]; 1260 ECL signal in assay [16]. The ECL signal in [17] amounted to 881 ECL signal; in assay [18], 11400 ECL signal; in assay [19], 1230 ECL signal.
